These are literature values, as cited in PMC12635586.

The target in one series is GFRAL (Homo sapiens) (UniProt Q6UXV0).
Sequence of GFRAL (Homo sapiens) (Q6UXV0 19-351): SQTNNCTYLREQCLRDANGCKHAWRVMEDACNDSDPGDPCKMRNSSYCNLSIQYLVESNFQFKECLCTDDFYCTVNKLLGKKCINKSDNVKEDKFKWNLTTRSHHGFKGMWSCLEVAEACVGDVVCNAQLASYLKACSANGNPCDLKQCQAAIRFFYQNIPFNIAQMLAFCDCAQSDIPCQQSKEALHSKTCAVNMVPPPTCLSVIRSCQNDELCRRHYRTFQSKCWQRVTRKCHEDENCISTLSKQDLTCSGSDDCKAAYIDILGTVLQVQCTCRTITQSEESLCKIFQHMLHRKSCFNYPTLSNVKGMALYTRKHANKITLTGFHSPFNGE

Sequence of Interleukin-6 (P05231 30-212): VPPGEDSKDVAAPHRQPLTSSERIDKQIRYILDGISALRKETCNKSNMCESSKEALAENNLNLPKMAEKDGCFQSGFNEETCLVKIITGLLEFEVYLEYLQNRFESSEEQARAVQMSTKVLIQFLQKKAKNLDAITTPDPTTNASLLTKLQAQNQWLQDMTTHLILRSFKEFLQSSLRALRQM
Sequence of Growth differentiation factor-15 (Q99988 195-308): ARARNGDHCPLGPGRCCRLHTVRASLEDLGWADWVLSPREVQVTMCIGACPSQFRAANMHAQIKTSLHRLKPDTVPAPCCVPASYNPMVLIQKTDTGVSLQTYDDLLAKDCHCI
Sequence of Clazakizumab (main, as listed by the source, chain 1 of 2): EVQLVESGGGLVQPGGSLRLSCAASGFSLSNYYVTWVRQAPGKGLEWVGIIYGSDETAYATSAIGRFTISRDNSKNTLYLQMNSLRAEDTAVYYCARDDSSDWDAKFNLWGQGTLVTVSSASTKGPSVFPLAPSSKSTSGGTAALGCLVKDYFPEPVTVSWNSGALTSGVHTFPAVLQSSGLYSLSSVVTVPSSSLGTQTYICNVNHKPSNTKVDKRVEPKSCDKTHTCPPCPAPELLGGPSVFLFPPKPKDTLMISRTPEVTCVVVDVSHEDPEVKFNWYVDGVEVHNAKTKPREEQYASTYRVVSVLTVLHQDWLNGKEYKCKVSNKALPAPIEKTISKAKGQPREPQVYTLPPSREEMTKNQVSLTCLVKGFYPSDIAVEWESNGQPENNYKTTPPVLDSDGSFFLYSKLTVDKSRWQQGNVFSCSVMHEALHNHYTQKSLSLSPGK
Sequence of Clazakizumab (partner, as listed by the source, chain 2 of 2): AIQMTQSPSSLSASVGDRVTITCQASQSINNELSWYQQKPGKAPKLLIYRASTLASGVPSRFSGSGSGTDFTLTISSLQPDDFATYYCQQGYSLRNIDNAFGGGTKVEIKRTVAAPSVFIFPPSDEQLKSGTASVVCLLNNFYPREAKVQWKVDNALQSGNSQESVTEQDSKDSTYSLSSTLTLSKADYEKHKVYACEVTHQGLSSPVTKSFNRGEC

The Kd is a measure of binding affinity in units of concentration. For “Growth differentiation factor-15 (from UniProt Q99988)”, the dissociation constant Kd in the series with GFRAL (Homo sapiens) was 8 nM.

For Interleukin-6 (from UniProt P05231), the equilibrium dissociation constant (Kd) with Clazakizumab was 4 pM.
